# Results as given in US20160348113, “RNA APTAMERS AGAINST BAFF-R AS CELL-TYPE SPECIFIC DELIVERY AGENTS AND METHODS FOR THEIR USE” (CITY OF HOPE, published 2016).
# T1: BAFF-R (B-cell activating factor receptor, TNFRSF13C) (Homo sapiens, UniProt Q96RJ3 Q96RJ3:1-76)
# T1 sequence: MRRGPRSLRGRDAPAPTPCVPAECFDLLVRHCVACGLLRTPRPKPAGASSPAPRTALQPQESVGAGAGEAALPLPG
# Key:
# [1] = target: T1, BAFF-R (B-cell activating factor …); assay: EMSA; high-salt binding buffer; about; settings: tags: ProSpect (Israel), human recombinant; label: 5'-32P or Cy3
# Protocol: (§1) Filter binding assays were used to detect the binding affinity of the individual aptamers. The RNA pool was treated with Calf Intestinal Phoshatase (CIP) to remove the initiating 5′-triphosphate and labeled with γ-³²P-ATP by T4 polynucleotide kinase and the end-labeled RNA pool (10 nM) was incubated with BAFF-R protein (100 nM) and a 10-fold molar excess of nonspecific competitor tRNA (100 nM) in the high-salt RNA binding buffer for 30 min. A 50 μL of binding reaction was separated by a pre-wet nitrocellulose filter. After the filter was washed with 2 mL binding buffer, the radioactivity retained on the filter was counted by a multi-purpose scintillation counter (Beckman Coulter).
# (§2) The binding activities of the RNA pools were further confirmed by gel shift assays. Briefly, the BAFF-R protein was serially diluted to the desired concentrations (0˜2560 nM). A constant amount of P³² end-labeled RNA (2 nM) was used. The binding reaction was performed as described above. […] Following electrophoresis the gel was exposed to a Phosphor image screen and the radioactivity was quantified using a Typhoon scanner. The dissociation constants were calculated using non-linear curve regression with a Graph Pad Prism. […] The dissociation constants (Kd) for selected aptamers (R-1, R-2 and R-14) with the target protein were calculated from a native gel mobility shift assay (FIG. 16A).
# [2] = target: T1, BAFF-R (B-cell activating factor …); assay: EMSA; 8U linker; settings: tags: ProSpect (Israel), human recombinant; label: 32P
# Protocol: (§3) The binding activities of the RNA pools were further confirmed by gel shift assays. Briefly, the BAFF-R protein was serially diluted to the desired concentrations (0˜2560 nM). A constant amount of P³² end-labeled RNA (2 nM) was used. The binding reaction was performed as described above. After incubation, 25 μL of binding reaction was loaded into a 5% non-denaturing polyacrylamide gel. Following electrophoresis the gel was exposed to a Phosphor image screen and the radioactivity was quantified using a Typhoon scanner. The dissociation constants were calculated using non-linear curve regression with a Graph Pad Prism. […] The dissociation constants (Kd) for selected aptamers (R-1, R-2 and R-14) with the target protein were calculated from a native gel mobility shift assay (FIG. 16A).
# (§4) The binding affinities of the chimeras for BAFF-R protein were assessed by gel shift assay (FIG. 40C and FIG. 49A). […] To determine whether the bound chimera is internalized by BAFF-R expressing cells, real-time Z-axis confocal microscopy was performed (FIG. 41A-C and FIG. 49B). The Cy3-labeled chimeras were successfully internalized into BAFF-R expressing cells (Jeko-1 and Z138) after 5 h post treatment.
# [3] = target: T1, BAFF-R (B-cell activating factor …); assay: EMSA; about; UU linker; settings: tags: ProSpect (Israel), human recombinant; label: 32P
# Protocol: as §3
# (§5) Binding affinities were also assessed by flow cytometry (FIG. 28). […] To determine if the bound chimeras were internalized in the BAFF-R expressing cells, out Z-axis confocal microscopy was performed with Jeko-1 cells and CEM control cells incubated with Cy3-labeled transcripts as described above. […] To visualize the nucleus, the cells were stained with the nuclear dye Hoechst 33342 after incubation with Cy3-RNA.
# [4] = target: T1, BAFF-R (B-cell activating factor …); assay: EMSA; parental R-1 in STAT3 chimera comparison; settings: tags: ProSpect (Israel), human recombinant; label: 5'-32P or Cy3
# Protocol: as §3, §4
# [5] = target: T1, BAFF-R (B-cell activating factor …); assay: EMSA; high-salt binding buffer (10 mM HEPES pH 7.4, 150 mM NaCl, 1 mM CaCl2, 1 mM MgCl2, tRNA); about; settings: tags: ProSpect (Israel), human recombinant; label: 5'-32P or Cy3
# Protocol: as §1, §2
# [6] = target: T1, BAFF-R (B-cell activating factor …); assay: EMSA; about; R-22 used as low-affinity negative control; settings: tags: ProSpect (Israel), human recombinant; label: 32P
# Protocol: as §3, §5
binder,measurement,setting,value
"R-14 aptamer (ssRNA, 2'-F pyrimidines (2'-F-C, 2'-F-U)) RNA: GGGAGGACGAUGCGGAUAACUAUUGUGCUAGAGGGCUUAUUUAUGUGAGCCGGUUGAUAGUUGCGCAGACGACUCGCCCGA",Kd,[1],96 nM
"R-1-STAT3 27-mer SWAP chimera (mixed, 2'-F pyrimidines in transcribed aptamer strand) RNA 1: GGGAGGACGAUGCGGGAGGCUCAACAAUGAUAGAGCCCGCAAUGUUGAUAGUUGUGCCCAGUCUGCAGACGACUCGCCCGAUUUUUUUUUCAGUCGUAUCUUUCUGCAGCUUCCGU RNA 2: GGAAGCUGCAGAAAGAUACGACUGA",Kd,[2],56 nM
"R-14 D-2 chimera (mixed, 2'-F pyrimidines in transcribed aptamer-sense strand) RNA 1: GGGAGGACGAUGCGGAUAACUAUUGUGCUAGAGGGCUUAUUUAUGUGAGCCGGUUGAUAGUUGCGCAGACGACUCGCCCGAUUUGUGCCACAGAUGUGAAGUUCAUUUCC RNA 2: AAAUGAACUUCACAUCUGUGGCACA",Kd,[3],73 nM
"R-14 D-1 chimera (mixed, 2'-F pyrimidines in transcribed aptamer-sense strand) RNA 1: GGGAGGACGAUGCGGAUAACUAUUGUGCUAGAGGGCUUAUUUAUGUGAGCCGGUUGAUAGUUGCGCAGACGACUCGCCCGAUUCCACAGAUGUGAAGUUCAUUUCCAA RNA 2: UUGGAAAUGAACUUCACAUCUGUGGCA",Kd,[3],80 nM
"R-1 D-2 chimera (CCND1 siRNA design 2) (mixed, 2'-F pyrimidines in transcribed aptamer-sense strand) RNA 1: GGGAGGACGAUGCGGGAGGCUCAACAAUGAUAGAGCCCGCAAUGUUGAUAGUUGUGCCCAGUCUGCAGACGACUCGCCCGAUUUGUGCCACAGAUGUGAAGUUCAUUUCC RNA 2: AAAUGAACUUCACAUCUGUGGCACA",Kd,[3],126 nM
"R-1-STAT3 27-mer OVH chimera (mixed, 2'-F pyrimidines in transcribed aptamer strand) RNA 1: GGGAGGACGAUGCGGGAGGCUCAACAAUGAUAGAGCCCGCAAUGUUGAUAGUUGUGCCCAGUCUGCAGACGACUCGCCCGAUUUUUUUUGAGAACGGAAGCUGCAGAAAGAUACGA RNA 2: GUAUCUUUCUGCAGCUUCCGUUCUC",Kd,[2],35 nM
"R-1 D-1-Mutated chimera (mixed, 2'-F pyrimidines in transcribed aptamer-sense strand) RNA 1: GGGAGGACGAUGCGGGAGGCUCAACAAUGAUAGAGCCCGCAAUGUUGAUAGUUGUGCCCAGUCUGCAGACGACUCGCCCGAUUCUCCAGAUUCCAAGCACAUUGUGAA RNA 2: UUCACAAUGUGCUUGGAAUCUGGAGCA",Kd,[3],51 nM
"R-1 D-1 chimera (CCND1 siRNA design 1) (mixed, 2'-F pyrimidines in transcribed aptamer-sense strand) RNA 1: GGGAGGACGAUGCGGGAGGCUCAACAAUGAUAGAGCCCGCAAUGUUGAUAGUUGUGCCCAGUCUGCAGACGACUCGCCCGAUUCCACAGAUGUGAAGUUCAUUUCCAA RNA 2: UUGGAAAUGAACUUCACAUCUGUGGCA",Kd,[3],66 nM
"R-1 aptamer (ssRNA, 2'-F pyrimidines (2'-F-C, 2'-F-U)) RNA: GGGAGGACGAUGCGGGAGGCUCAACAAUGAUAGAGCCCGCAAUGUUGAUAGUUGUGCCCAGUCUGCAGACGACUCGCCCGA",Kd,[4],54 nM
same,Kd,[5],47 nM
"R-22 D-1 chimera (mixed, 2'-F pyrimidines in transcribed aptamer-sense strand) RNA 1: GGAGGACGAUGCGGAUCCUCCGAAGGUCGCGCCAACGUCACACAUUAAGCUUUUGUUCGUCUGCAGACGACUCGCCCGAUUCCACAGAUGUGAAGUUCAUUUCCAA RNA 2: UUGGAAAUGAACUUCACAUCUGUGGCA",Kd,[6],191 nM
